How the values were obtained:
Test in all cases: Kinase Profiling Assay
Type in all cases: biochemical
Details in all cases: 100 μM peptide
[1] = molecular target: Abl(T315I)(h) (Homo sapiens, UniProt P00519, T315I)
In short: (§1)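 Duplicate activity readings per kinase; peptide inhibitors of MK2 profiled against 266 human kinases for selectivity.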

[2] = molecular target: CDK5/p35(h) (Homo sapiens, UniProt Q00535)
In short: as §1

[3] = molecular target: JNK3(h) (Homo sapiens, UniProt P53779)
In short: as §1

[4] = molecular target: Met(Y1248C)(h) (Homo sapiens, UniProt P08581, Y1230C)
In short: as §1

[5] = molecular target: Met(Y1248H)(h) (Homo sapiens, UniProt P08581, Y1230H)
In short: as §1

[6] = molecular target: T1, PKCμ(h) (Homo sapiens, UniProt Q15139)
T1 construct: purchased Millipore (IC50 Profiler Express service)
T1 sequence (Q15139 1-912): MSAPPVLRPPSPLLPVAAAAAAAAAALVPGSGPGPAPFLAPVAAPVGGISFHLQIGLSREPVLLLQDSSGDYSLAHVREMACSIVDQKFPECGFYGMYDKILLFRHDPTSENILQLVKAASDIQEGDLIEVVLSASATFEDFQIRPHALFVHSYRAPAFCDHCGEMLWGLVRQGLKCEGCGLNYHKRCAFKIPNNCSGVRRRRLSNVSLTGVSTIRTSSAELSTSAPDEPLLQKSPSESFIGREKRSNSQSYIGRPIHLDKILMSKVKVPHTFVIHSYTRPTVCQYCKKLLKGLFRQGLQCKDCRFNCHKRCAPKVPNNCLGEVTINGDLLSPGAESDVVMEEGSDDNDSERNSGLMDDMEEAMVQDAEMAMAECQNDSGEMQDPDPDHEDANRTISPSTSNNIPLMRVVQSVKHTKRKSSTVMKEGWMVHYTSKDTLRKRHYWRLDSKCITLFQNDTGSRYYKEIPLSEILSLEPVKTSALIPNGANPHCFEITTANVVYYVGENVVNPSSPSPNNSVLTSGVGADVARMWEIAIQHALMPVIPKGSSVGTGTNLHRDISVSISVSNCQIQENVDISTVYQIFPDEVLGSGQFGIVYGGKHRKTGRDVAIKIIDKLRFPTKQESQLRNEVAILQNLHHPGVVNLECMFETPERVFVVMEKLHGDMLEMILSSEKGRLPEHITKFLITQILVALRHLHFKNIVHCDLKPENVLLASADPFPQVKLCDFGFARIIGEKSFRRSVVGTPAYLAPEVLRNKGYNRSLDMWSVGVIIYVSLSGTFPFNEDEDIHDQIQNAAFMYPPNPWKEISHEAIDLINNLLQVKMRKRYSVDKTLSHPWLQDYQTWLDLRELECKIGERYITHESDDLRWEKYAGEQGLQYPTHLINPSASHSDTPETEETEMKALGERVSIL
In short: as §1

[7] = molecular target: T2, RIPK2(h) (Homo sapiens, UniProt O43353)
T2 construct: purchased Millipore (IC50 Profiler Express service)
T2 sequence (O43353 whole entry): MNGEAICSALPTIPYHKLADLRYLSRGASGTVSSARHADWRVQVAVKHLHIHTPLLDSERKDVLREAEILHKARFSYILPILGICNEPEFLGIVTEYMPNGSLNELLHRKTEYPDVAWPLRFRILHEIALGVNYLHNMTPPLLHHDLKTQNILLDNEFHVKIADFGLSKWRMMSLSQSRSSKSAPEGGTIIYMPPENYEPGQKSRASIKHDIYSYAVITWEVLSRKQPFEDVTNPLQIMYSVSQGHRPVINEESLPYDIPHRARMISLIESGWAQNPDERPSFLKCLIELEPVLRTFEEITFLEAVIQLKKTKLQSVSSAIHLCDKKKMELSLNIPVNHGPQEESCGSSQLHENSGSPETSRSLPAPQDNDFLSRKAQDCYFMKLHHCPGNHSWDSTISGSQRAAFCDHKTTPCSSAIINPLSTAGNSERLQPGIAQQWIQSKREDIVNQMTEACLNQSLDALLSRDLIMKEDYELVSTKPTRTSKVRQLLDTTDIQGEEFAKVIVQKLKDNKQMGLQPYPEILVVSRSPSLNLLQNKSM
In short: as §1

[8] = molecular target: T3, TSSK1(h) (Homo sapiens, UniProt Q9BXA7)
T3 sequence (Q9BXA7 1-367): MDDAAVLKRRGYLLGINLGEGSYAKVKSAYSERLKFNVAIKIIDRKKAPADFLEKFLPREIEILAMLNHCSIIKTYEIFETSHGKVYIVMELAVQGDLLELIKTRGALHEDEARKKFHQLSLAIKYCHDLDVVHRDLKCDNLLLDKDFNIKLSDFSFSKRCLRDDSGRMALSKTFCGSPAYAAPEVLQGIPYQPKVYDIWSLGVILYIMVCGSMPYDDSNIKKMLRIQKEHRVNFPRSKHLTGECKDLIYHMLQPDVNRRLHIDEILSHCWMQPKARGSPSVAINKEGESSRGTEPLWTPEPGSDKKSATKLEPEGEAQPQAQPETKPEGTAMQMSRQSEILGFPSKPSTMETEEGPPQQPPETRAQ
In short: as §1

[9] = molecular target: cSRC(h) (Homo sapiens, UniProt P12931)
In short: as §1

[10] = molecular target: Abl(Y253F)(h) (Homo sapiens, UniProt P00519, Y253F)
In short: as §1

[11] = molecular target: T4, IKKβ(h) (Homo sapiens, UniProt O14920)
T4 construct: purchased Millipore
T4 sequence (O14920 1-756): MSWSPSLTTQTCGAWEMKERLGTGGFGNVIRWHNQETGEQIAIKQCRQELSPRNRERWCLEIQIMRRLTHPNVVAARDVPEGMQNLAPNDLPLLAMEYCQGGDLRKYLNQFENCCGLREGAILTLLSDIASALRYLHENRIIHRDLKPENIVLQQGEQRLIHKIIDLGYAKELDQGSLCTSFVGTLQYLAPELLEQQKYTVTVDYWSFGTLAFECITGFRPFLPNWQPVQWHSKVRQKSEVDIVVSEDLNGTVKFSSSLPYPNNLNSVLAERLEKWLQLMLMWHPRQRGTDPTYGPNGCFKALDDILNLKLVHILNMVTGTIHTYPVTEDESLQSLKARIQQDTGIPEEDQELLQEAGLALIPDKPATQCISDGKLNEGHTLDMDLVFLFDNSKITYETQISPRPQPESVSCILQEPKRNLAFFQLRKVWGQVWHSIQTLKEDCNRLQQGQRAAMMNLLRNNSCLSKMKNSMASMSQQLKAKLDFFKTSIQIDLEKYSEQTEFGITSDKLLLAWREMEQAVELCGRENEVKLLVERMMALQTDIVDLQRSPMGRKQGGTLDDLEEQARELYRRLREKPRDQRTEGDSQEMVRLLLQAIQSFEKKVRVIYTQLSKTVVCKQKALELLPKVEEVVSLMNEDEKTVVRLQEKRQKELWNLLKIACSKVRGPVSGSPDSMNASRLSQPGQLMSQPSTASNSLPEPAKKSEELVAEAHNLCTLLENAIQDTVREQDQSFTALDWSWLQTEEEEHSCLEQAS
In short: as §1

[12] = molecular target: T5, IR(h), activated (Homo sapiens, UniProt P06213)
T5 construct: purchased Millipore
T5 sequence (P06213 1005-1310 limits assumed): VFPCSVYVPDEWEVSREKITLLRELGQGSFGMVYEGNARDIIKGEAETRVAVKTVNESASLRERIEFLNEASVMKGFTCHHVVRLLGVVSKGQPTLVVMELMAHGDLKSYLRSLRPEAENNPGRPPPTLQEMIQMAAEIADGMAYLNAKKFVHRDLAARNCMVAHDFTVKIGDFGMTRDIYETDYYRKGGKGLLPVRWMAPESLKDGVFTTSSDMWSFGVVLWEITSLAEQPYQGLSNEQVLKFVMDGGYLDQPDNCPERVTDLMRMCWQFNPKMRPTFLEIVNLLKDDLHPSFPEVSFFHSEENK
In short: as §1

[13] = molecular target: SIK(h) (Homo sapiens, UniProt P57059)
Chain of SIK(h) (P57059 whole entry): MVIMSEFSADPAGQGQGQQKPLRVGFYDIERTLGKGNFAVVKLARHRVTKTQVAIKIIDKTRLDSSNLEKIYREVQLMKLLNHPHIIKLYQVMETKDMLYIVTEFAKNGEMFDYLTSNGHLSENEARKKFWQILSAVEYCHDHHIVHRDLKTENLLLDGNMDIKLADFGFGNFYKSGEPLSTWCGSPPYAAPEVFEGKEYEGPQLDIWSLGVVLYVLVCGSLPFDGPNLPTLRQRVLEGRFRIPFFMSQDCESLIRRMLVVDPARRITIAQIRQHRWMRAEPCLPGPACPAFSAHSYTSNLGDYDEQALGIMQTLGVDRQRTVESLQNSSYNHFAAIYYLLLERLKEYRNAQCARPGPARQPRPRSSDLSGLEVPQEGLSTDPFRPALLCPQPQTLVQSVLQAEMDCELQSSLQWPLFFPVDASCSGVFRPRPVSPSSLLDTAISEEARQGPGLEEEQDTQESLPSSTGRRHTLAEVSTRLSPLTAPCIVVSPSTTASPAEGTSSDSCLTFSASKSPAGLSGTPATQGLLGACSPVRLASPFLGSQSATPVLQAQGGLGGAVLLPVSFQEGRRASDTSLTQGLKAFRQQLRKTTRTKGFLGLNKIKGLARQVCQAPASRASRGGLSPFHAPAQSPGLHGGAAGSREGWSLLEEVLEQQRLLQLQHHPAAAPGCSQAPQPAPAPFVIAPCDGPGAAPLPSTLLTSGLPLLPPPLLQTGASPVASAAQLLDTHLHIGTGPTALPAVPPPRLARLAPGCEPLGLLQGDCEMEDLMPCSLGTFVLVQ
In short: as §1

[14] = molecular target: eEF-2K(h) (Homo sapiens, UniProt O00418)
In short: as §1

Chain of CDK5/p35(h) (Q00535 whole entry): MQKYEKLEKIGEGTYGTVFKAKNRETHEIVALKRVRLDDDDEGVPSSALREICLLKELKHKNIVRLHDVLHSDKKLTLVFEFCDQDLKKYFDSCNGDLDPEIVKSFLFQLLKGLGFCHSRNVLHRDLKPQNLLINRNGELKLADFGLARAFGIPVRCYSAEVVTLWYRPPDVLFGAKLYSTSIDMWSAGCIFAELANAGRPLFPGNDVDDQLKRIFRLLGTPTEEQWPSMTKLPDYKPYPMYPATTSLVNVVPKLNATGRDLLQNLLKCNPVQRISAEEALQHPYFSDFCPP
Chain of CDK5/p35(h) (Q15078 2-307 partner limits assumed): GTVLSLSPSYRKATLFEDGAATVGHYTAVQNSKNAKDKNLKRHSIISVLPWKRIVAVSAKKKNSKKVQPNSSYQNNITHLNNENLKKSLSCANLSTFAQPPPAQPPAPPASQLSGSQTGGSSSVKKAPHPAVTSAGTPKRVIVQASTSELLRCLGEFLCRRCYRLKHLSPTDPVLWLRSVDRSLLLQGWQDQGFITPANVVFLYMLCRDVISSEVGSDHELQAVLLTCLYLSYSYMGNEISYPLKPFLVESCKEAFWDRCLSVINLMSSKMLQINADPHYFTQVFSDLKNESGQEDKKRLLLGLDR
Chain of JNK3(h) (P53779 whole entry): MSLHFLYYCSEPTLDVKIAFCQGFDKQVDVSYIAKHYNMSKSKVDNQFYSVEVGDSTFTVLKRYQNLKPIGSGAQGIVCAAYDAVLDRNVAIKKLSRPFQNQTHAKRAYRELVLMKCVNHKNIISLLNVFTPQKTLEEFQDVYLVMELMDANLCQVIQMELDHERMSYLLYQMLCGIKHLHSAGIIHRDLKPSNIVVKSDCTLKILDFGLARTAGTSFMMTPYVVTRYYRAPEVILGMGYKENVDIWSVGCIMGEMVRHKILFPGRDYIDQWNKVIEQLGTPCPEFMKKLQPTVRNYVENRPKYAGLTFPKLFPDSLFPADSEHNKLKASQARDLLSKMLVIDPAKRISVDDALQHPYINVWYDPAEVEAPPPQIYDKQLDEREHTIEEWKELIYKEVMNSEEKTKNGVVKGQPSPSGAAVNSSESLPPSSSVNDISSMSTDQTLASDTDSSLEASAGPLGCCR

Sequence: YARAAARQARAKALNRQLGVA (Mammalian) [MMI-0200]
- Abl(T315I)(h) % activity [1]: 108%
- CDK5/p35(h) % activity [2]: 92%
- JNK3(h) % activity [3]: 90%
- Met(Y1248C)(h) % activity [4]: 141%
- Met(Y1248H)(h) % activity [5]: 153%
- PKCμ(h) % activity [6]: 73%
- RIPK2(h) % activity [7]: 98%
- TSSK1(h) % activity [8]: 98%
- cSRC(h) % activity [9]: 32%

Sequence: HRRIKAWLKKIKALARQLGVAA (Mammalian) [MMI-0500]
- Abl(T315I)(h) % activity [1]: 16%
- Abl(Y253F)(h) % activity [10]: 29%
- CDK5/p35(h) % activity [2]: 59%
- IKKβ(h) % activity [11]: 71%
- IR(h), activated % activity [12]: 90%
- JNK3(h) % activity [3]: 171%
- Met(Y1248C)(h) % activity [4]: 73%
- Met(Y1248H)(h) % activity [5]: 126%
- PKCμ(h) % activity [6]: 10%
- RIPK2(h) % activity [7]: 30%
- SIK(h) % activity [13]: 40%
- TSSK1(h) % activity [8]: 46%
- cSRC(h) % activity [9]: 30%
- eEF-2K(h) % activity [14]: 43%

Sequence: KAFAKLAARLYRKALARQLGVAA [MMI-0400]
- Abl(Y253F)(h) % activity [10]: 78%
- CDK5/p35(h) % activity [2]: 76%
- IKKβ(h) % activity [11]: 84%
- IR(h), activated % activity [12]: 59%
- JNK3(h) % activity [3]: 70%
- Met(Y1248C)(h) % activity [4]: 36%
- Met(Y1248H)(h) % activity [5]: 63%
- PKCμ(h) % activity [6]: 14%
- RIPK2(h) % activity [7]: 98%
- SIK(h) % activity [13]: 68%
- TSSK1(h) % activity [8]: 79%
- cSRC(h) % activity [9]: 14%
- eEF-2K(h) % activity [14]: 43%

Sequence: FAKLAARLYRKALARQLGVAA [MMI-0300]
- Abl(T315I)(h) % activity [1]: 97%
- Abl(Y253F)(h) % activity [10]: 86%
- CDK5/p35(h) % activity [2]: 79%
- IKKβ(h) % activity [11]: 84%
- IR(h), activated % activity [12]: 79%
- JNK3(h) % activity [3]: 89%
- Met(Y1248C)(h) % activity [4]: 84%
- PKCμ(h) % activity [6]: 22%
- RIPK2(h) % activity [7]: 97%
- SIK(h) % activity [13]: 66%
- TSSK1(h) % activity [8]: 79%
- cSRC(h) % activity [9]: 26%
- eEF-2K(h) % activity [14]: 91%
